Each block holds one binder with its values, some of them ahead of it.
Assays:
[1] = target: T1, Fc-E-cadherin chimeric protein; assay: SPR (BIAcore X), Fc-E-cadherin captured on protein A, peptide as analyte, 3 mM CaCl2, fit to binding isotherm
T1 construct: It was captured on immobilised protein A on a CM5 chip (about 3500 RU)
Experimental: (§1) The binding of representative peptide modulating agents to Fc-E-cadherin chimeric protein in either the presence (3 mM CaCl₂) or absence of calcium was assessed using a BIAcore X™ Biosensor (Pharmacia Ltd., Sweden). Protein A was immobilized on the flow cells of a CM 5 sensor chip using a standard amine coupling method. The surfaces were activated with a 7 min injection of NHS/EDC, followed by a 7 min injection of protein A in 10 mM acetate pH 5.0 at a concentration of 50 ug/mL and blocked with a 7 min injection of 8 M ethanolamine, pH 8.2. […] Next, Fc-E-cadherin was injected over the protein A surface to be captured on the sensor chip.
(§2) To test compound binding to these surfaces, candidate modulating agents were injected in a three-fold dilution series over the Fc-E-cadherin-coated surfaces using six concentrations and each concentration was repeated twice.

[2] = target: T1, Fc-E-cadherin chimeric protein; assay: SPR (BIAcore X), Fc-E-cadherin captured on protein A, peptide as analyte, no calcium, fit to binding isotherm
Experimental: as §1, §2

[3] = target: T1, Fc-E-cadherin chimeric protein; assay: SPR (BIAcore X), Fc-E-cadherin captured on protein A, peptide as analyte, 3 mM CaCl2, fit to binding isotherm; with Ca^++ (3 mM CaCl2)
Experimental: as §1, §2

T1 sequence (P12830 155-709, change not shown): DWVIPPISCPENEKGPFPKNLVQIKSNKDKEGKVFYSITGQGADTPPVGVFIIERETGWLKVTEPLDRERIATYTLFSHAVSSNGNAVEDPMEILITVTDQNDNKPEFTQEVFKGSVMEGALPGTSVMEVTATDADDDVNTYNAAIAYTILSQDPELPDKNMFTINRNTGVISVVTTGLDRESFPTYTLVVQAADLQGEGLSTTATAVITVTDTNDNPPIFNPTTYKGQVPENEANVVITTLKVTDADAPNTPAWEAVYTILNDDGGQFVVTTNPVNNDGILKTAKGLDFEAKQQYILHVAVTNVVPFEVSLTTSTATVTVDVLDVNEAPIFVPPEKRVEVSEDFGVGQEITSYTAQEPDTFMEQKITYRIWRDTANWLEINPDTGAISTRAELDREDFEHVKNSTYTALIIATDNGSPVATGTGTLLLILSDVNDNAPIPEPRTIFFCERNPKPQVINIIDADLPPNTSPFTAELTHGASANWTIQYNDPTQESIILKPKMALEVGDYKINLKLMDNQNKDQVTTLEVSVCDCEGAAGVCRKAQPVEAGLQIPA

Kd [1]: 42 µM
B1: H-AWVIPP-NH2 (peptide)
peptide: H-AWVIPP-NH2
notes: Linear synthetic peptide; analogue of H-DWVIPP-NH2

Kd [1]: 543 µM
B2: H-PWVIPP-NH2 (peptide)
peptide: H-PWVIPP-NH2
notes: as for B1

Kd [1]: 36.1 µM
Kd [2]: 66 µM
Binder: H-DWVIP-NH2 (Linear synthetic peptide) [H-DWVIP-NH2]

Kd [1]: 59 µM
B3: H-DWVIPA-NH2 (peptide)
peptide: H-DWVIPA-NH2
notes: as for B1

Kd [1]: 34 µM
B4: H-DWVIPP-NH2 (peptide)
peptide: H-DWVIPP-NH2
notes: Linear synthetic peptide; also called ADH254

Kd [1]: 17 µM
B5: H-DWVIAP-NH2 (peptide)
peptide: H-DWVIAP-NH2
notes: as for B1

Kd [3]: 21000 µM
B6: H-DWVAPP-NH2 (peptide)
peptide: H-DWVAPP-NH2
notes: as for B1
